B1: glmS ribozyme (parent)
chain: AUAAAAGCGCCAGAACUACAGAAAUGUAGUUGACGAGGAGGAGGUUUAUCGAAUUUUCGGCGGAUGCCUCCAAA

Holding throughout (settings): with glucosamine-6-phosphate
Data set [1] covers variants of B1. Put plainly: kcat; higher = faster cleavage; RNA array. The method, boiled down:
(§1)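 A hybridised Cy3 probe tracked barcoded ribozyme variants, transcribed in situ by E. coli RNA polymerase on sequenced MiSeq chips, at 37 °C. The variants received 40 μM to 10 mM glucosamine-6-phosphate in HEPES/KCl/Mg(OAc)2 buffer. kobs came from decay fits and kcat and KM from weighted Michaelis–Menten fits.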

In data set [2] the parent is B1. Kind of data set: self-cleavage kobs at 2500 uM GlcN6P; higher = faster cleavage; RNA array. The method, boiled down: as §1
Variants of B1 are the subject of data set [3]. Kind of data set: self-cleavage kobs at 10000 uM GlcN6P; higher = faster cleavage; RNA array. The method, boiled down: as §1
Variants of B1 are the subject of data set [4]. Put plainly: self-cleavage kobs at 40 uM GlcN6P; higher = faster cleavage; RNA array. An outline of the steps:
as §1

The variants in data set [5] derive from B1. Kind of data set: self-cleavage kobs at 160 uM GlcN6P; higher = faster cleavage; RNA array. An outline of the steps: as §1
The variants in data set [6] derive from B1. Kind of data set: self-cleavage kobs at 640 uM GlcN6P; higher = faster cleavage; RNA array. The method, boiled down:
as §1

Variants of B1 are the subject of data set [7]. Put plainly: KM; higher = weaker cofactor use; RNA array. The method, boiled down:
as §1

What is called kcat is the number of substrate molecules converted per active site and unit of time at saturation. As usually defined, the KM is the substrate concentration at which the rate is half of its maximum.

± gives the standard error. For part of these data: Variants at the floor of the assay were thinned out.

Turning to G29C G66U, in the data set with glucosamine-6-phosphate [1], the kcat stood at 6.74e-05 ± 1.2e-05 s⁻¹. Besides, the “self-cleavage kobs at 2500 uM GlcN6P” value in the data set with glucosamine-6-phosphate [2] was 7.9e-05 ± 2e-05 s⁻¹. In addition, in the data set with glucosamine-6-phosphate [3], the “self-cleavage kobs at 10000 uM GlcN6P” value was 5.98e-05 ± 1e-05 s⁻¹.
As to A12C U45G, the “self-cleavage kobs at 40 uM GlcN6P” value in the data set with glucosamine-6-phosphate [4] turned out to be 0.000128 ± 4.1e-05 s⁻¹. In the data set with glucosamine-6-phosphate [3], the “self-cleavage kobs at 10000 uM GlcN6P” value was found to be 0.012 ± 0.004 s⁻¹.
For the variant A6G G37C, the kcat with glucosamine-6-phosphate [1] is under 1e-05 s⁻¹. Besides, the “self-cleavage kobs at 160 uM GlcN6P” value with glucosamine-6-phosphate [5] is under 1e-05 s⁻¹.
As to C67U C70G, the kcat with glucosamine-6-phosphate [1] worked out at 2.32e-05 ± 6.8e-06 s⁻¹. For the same variant, the “self-cleavage kobs at 640 uM GlcN6P” value with glucosamine-6-phosphate [6] was 2.59e-05 ± 9e-06 s⁻¹. For the same variant, the “self-cleavage kobs at 2500 uM GlcN6P” value with glucosamine-6-phosphate [2] came to 2.88e-05 ± 6.7e-06 s⁻¹.
Take C8U A52G G63U: the “self-cleavage kobs at 40 uM GlcN6P” value with glucosamine-6-phosphate [4] was under 1e-05 s⁻¹. In addition, the “self-cleavage kobs at 10000 uM GlcN6P” value in the data set with glucosamine-6-phosphate [3] is under 1e-05 s⁻¹.
As to G7U U55A, in the data set with glucosamine-6-phosphate [1], the kcat was under 1e-05 s⁻¹. Besides, in the data set with glucosamine-6-phosphate [5], the “self-cleavage kobs at 160 uM GlcN6P” value was under 1e-05 s⁻¹. Moreover, the “self-cleavage kobs at 640 uM GlcN6P” value in the data set with glucosamine-6-phosphate [6] is under 1e-05 s⁻¹. Besides, the “self-cleavage kobs at 2500 uM GlcN6P” value with glucosamine-6-phosphate [2] is under 1e-05 s⁻¹.
For the variant G43U G44A, the “self-cleavage kobs at 40 uM GlcN6P” value with glucosamine-6-phosphate [4] was under 1e-05 s⁻¹. Besides, the “self-cleavage kobs at 160 uM GlcN6P” value in the data set with glucosamine-6-phosphate [5] is under 1e-05 s⁻¹. Moreover, the “self-cleavage kobs at 640 uM GlcN6P” value with glucosamine-6-phosphate [6] was under 1e-05 s⁻¹. In addition, the “self-cleavage kobs at 2500 uM GlcN6P” value in the data set with glucosamine-6-phosphate [2] was under 1e-05 s⁻¹. Further, the “self-cleavage kobs at 10000 uM GlcN6P” value with glucosamine-6-phosphate [3] is under 1e-05 s⁻¹.
Regarding A6U A15G U30C, in the data set with glucosamine-6-phosphate [1], the kcat came out at 0.000345 ± 9.4e-05 s⁻¹. Besides, the “self-cleavage kobs at 640 uM GlcN6P” value with glucosamine-6-phosphate [6] was determined as 5.44e-05 ± 2e-05 s⁻¹. The “self-cleavage kobs at 2500 uM GlcN6P” value with glucosamine-6-phosphate [2] came out at 0.00023 ± 6.3e-05 s⁻¹. Besides, the “self-cleavage kobs at 10000 uM GlcN6P” value with glucosamine-6-phosphate [3] was 0.000255 ± 5.8e-05 s⁻¹.
As for C16U U30A, the kcat in the data set with glucosamine-6-phosphate [1] is 0.003 ± 0.00083 s⁻¹. Moreover, the KM in the data set with glucosamine-6-phosphate [7] was 2310 ± 910 µM. Besides, the “self-cleavage kobs at 40 uM GlcN6P” value with glucosamine-6-phosphate [4] came out at 7.15e-05 ± 7.9e-06 s⁻¹. Moreover, in the data set with glucosamine-6-phosphate [5], the “self-cleavage kobs at 160 uM GlcN6P” value was 0.000131 ± 2.6e-05 s⁻¹. Further, the “self-cleavage kobs at 640 uM GlcN6P” value with glucosamine-6-phosphate [6] came to 0.000648 ± 0.00011 s⁻¹. In the data set with glucosamine-6-phosphate [2], the “self-cleavage kobs at 2500 uM GlcN6P” value turned out to be 0.00171 ± 0.00029 s⁻¹. The “self-cleavage kobs at 10000 uM GlcN6P” value with glucosamine-6-phosphate [3] stood at 0.00242 ± 0.00027 s⁻¹.
For the variant G59A A64U, the “self-cleavage kobs at 40 uM GlcN6P” value in the data set with glucosamine-6-phosphate [4] is under 1e-05 s⁻¹. Besides, the “self-cleavage kobs at 2500 uM GlcN6P” value with glucosamine-6-phosphate [2] was under 1e-05 s⁻¹. In addition, the “self-cleavage kobs at 10000 uM GlcN6P” value in the data set with glucosamine-6-phosphate [3] was under 1e-05 s⁻¹.
As for G38U U46A, in the data set with glucosamine-6-phosphate [4], the “self-cleavage kobs at 40 uM GlcN6P” value is under 1e-05 s⁻¹. For the same variant, the “self-cleavage kobs at 160 uM GlcN6P” value with glucosamine-6-phosphate [5] was under 1e-05 s⁻¹. For the same variant, in the data set with glucosamine-6-phosphate [2], the “self-cleavage kobs at 2500 uM GlcN6P” value was under 1e-05 s⁻¹.
On to A53C C70G, for which the catalytic constant (kcat) with glucosamine-6-phosphate [1] amounted to 8.19e-05 ± 3.8e-06 s⁻¹. For the same variant, in the data set with glucosamine-6-phosphate [7], the KM amounted to 438 ± 110 µM. For the same variant, the “self-cleavage kobs at 640 uM GlcN6P” value with glucosamine-6-phosphate [6] is 5.26e-05 ± 9.1e-06 s⁻¹. Besides, in the data set with glucosamine-6-phosphate [2], the “self-cleavage kobs at 2500 uM GlcN6P” value was 6.51e-05 ± 9.9e-06 s⁻¹. Moreover, in the data set with glucosamine-6-phosphate [3], the “self-cleavage kobs at 10000 uM GlcN6P” value worked out at 7.97e-05 ± 7.3e-06 s⁻¹.
Take A14C C70U: in the data set with glucosamine-6-phosphate [4], the “self-cleavage kobs at 40 uM GlcN6P” value amounted to 0.000159 ± 1.4e-05 s⁻¹. In the data set with glucosamine-6-phosphate [5], the “self-cleavage kobs at 160 uM GlcN6P” value came to 0.000308 ± 3.9e-05 s⁻¹. For the same variant, in the data set with glucosamine-6-phosphate [6], the “self-cleavage kobs at 640 uM GlcN6P” value turned out to be 0.000897 ± 9.5e-05 s⁻¹. Besides, the “self-cleavage kobs at 2500 uM GlcN6P” value with glucosamine-6-phosphate [2] is 0.00439 ± 0.0007 s⁻¹. Moreover, the “self-cleavage kobs at 10000 uM GlcN6P” value in the data set with glucosamine-6-phosphate [3] was found to be 0.00953 ± 0.0013 s⁻¹.
For the variant C10A C16G U31G G38A C61U, in the data set with glucosamine-6-phosphate [4], the “self-cleavage kobs at 40 uM GlcN6P” value was under 1e-05 s⁻¹. In addition, in the data set with glucosamine-6-phosphate [3], the “self-cleavage kobs at 10000 uM GlcN6P” value is under 1e-05 s⁻¹.
As to A48C C50U, in the data set with glucosamine-6-phosphate [4], the “self-cleavage kobs at 40 uM GlcN6P” value is under 1e-05 s⁻¹. The “self-cleavage kobs at 160 uM GlcN6P” value in the data set with glucosamine-6-phosphate [5] was under 1e-05 s⁻¹. The “self-cleavage kobs at 640 uM GlcN6P” value with glucosamine-6-phosphate [6] is under 1e-05 s⁻¹. Moreover, in the data set with glucosamine-6-phosphate [2], the “self-cleavage kobs at 2500 uM GlcN6P” value was under 1e-05 s⁻¹. Further, the “self-cleavage kobs at 10000 uM GlcN6P” value with glucosamine-6-phosphate [3] was under 1e-05 s⁻¹.
With C10A A36U, the “self-cleavage kobs at 40 uM GlcN6P” value with glucosamine-6-phosphate [4] was under 1e-05 s⁻¹. In addition, in the data set with glucosamine-6-phosphate [5], the “self-cleavage kobs at 160 uM GlcN6P” value was under 1e-05 s⁻¹. In addition, the “self-cleavage kobs at 640 uM GlcN6P” value in the data set with glucosamine-6-phosphate [6] is under 1e-05 s⁻¹. Further, the “self-cleavage kobs at 2500 uM GlcN6P” value with glucosamine-6-phosphate [2] is under 1e-05 s⁻¹. The “self-cleavage kobs at 10000 uM GlcN6P” value with glucosamine-6-phosphate [3] was under 1e-05 s⁻¹.
On to G13U G32U A36G G38C U54G, for which the “self-cleavage kobs at 40 uM GlcN6P” value with glucosamine-6-phosphate [4] was under 1e-05 s⁻¹.
As for C8A A36G, the “self-cleavage kobs at 40 uM GlcN6P” value with glucosamine-6-phosphate [4] is under 1e-05 s⁻¹. Also, the “self-cleavage kobs at 160 uM GlcN6P” value with glucosamine-6-phosphate [5] is under 1e-05 s⁻¹. The “self-cleavage kobs at 640 uM GlcN6P” value in the data set with glucosamine-6-phosphate [6] was under 1e-05 s⁻¹. Also, the “self-cleavage kobs at 2500 uM GlcN6P” value in the data set with glucosamine-6-phosphate [2] is under 1e-05 s⁻¹. Further, in the data set with glucosamine-6-phosphate [3], the “self-cleavage kobs at 10000 uM GlcN6P” value is under 1e-05 s⁻¹.

Source of the values: the supplement of paper PMC7125110.
